The supplement of paper PMC10126150
± gives the standard deviation of the averaged measurements.

Tested on: ATP
Assay: switch fluorescence ratio, 500 uM ATP over buffer (Cy3 cluster intensity, sum of 5 cycles each) (fold (ratio)); higher = stronger signal-on switching upon ATP binding; sequences stand for … in TCGTCGGCAGCGTCAGATGTGTATAAGAGACAGTTTTTTTTTTTTTTTTTTTTTTTTT…TC
Details: aptamer strand: ATP DNA aptamer (quencher-CACCTGGGGGAGTATTGCGGAGGAAGG + anchor), 100 nM annealed; ATP concentration: 500 uM
Method in brief: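 Exposure to 500 uM ATP lasted 15 min at 22 °C before imaging, and a selection-buffer image was taken beforehand, for Cy3-labelled switching-strand clusters on a modified Illumina MiSeq flow-cell annealed to 100 nM quencher-labelled ATP aptamer. Five buffer/ATP cycles were run with NaOH stripping and re-annealing between them. The fluorescence ratio per cluster is summed target-cycle over summed buffer-cycle Cy3 intensity, averaged per switch-domain sequence. Clusters outside 100-1000 RFU were excluded.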

Sequence | switch fluorescence ratio
CCTAGCGGTT | 1.1459 ± 0.00038
CCTAGGGAGC | 1.07 ± 0.1
CCTAGGGGGC | 1.24 ± 0.29
CCTAGGGGGG | 1.17 ± 0.23
CCTAGTCGGC | 1.0715 ± 0.00095
CCTAGTGTTC | 0.9801 ± 0.0083
CCTAGTTCGG | 0.997 ± 0.027
CCTATAGAGT | 0.964 ± 0.02
CCTATATTAA | 0.9853 ± 0.0066
CCTATGGTTG | 0.997 ± 0.033
CCTATTACTT | 1 ± 0.034
CCTATTATTT | 1 ± 0.051
CCTCATTGAC | 2.24 ± 0.15
CCTCGAGGGT | 1.09 ± 0.07
CCTCGATTCA | 1.03 ± 0.017
CCTCTACTGG | 1.12 ± 0.042
CCTCTGGGGA | 1.82 ± 0.94
CCTGAAAGGT | 1.003 ± 0.0079
CCTGACAGCG | 1.012 ± 0.0083
CCTGAGAGAG | 1.034 ± 0.0052
CCTGAGGAGG | 0.997 ± 0.014
CCTGATCGAT | 1.01 ± 0.02
CCTGATGGGG | 1.01 ± 0.017
CCTGATTGAA | 0.991 ± 0.0088
CCTGCATTTT | 1.3 ± 0.33
CCTGCCAAGA | 2 ± 1.4

Sequence | switch fluorescence ratio
CCTGCGGGG | 1.11 ± 0.022
CCTGCGTAAG | 2.29 ± 0.11
CCTGCTAAGT | 1 ± 0.058
CCTGGAAATT | 1.02 ± 0.023
CCTGGATATT | 0.997 ± 0.013
CCTGGGCCCA | 1.09 ± 0.15
CCTGGGTGGG | 1.12 ± 0.065
CCTGGGTTTC | 1.008 ± 0.0052
CCTGGGTTTT | 1.06 ± 0.05
CCTGGTAAGT | 1.04 ± 0.051
CCTGGTGGGA | 0.999 ± 0.014
CCTGTCATGT | 1.02 ± 0.013
CCTGTGAGGT | 1.01 ± 0.045
CCTGTGTTCG | 1 ± 0.025
CCTGTTAGCT | 1.15 ± 0.076
CCTGTTTTAT | 0.9953 ± 0.0051
CCTGTTTTCG | 1.06 ± 0.05
CCTGTTTTTA | 0.986 ± 0.024
CCTTACAGCT | 1.2 ± 0.044
CCTTAGGGGC | 1.03 ± 0.026
CCTTATAAA | 1 ± 0.018
CCTTATTAGT | 0.984 ± 0.012
CCTTATTGGG | 1.05 ± 0.037
CCTTCTTGGG | 1.015 ± 0.0033
CCTTGCCGTT | 0.99 ± 0.017
CCTTGGGTAT | 1.01 ± 0.034

Sequence | switch fluorescence ratio
CCTTGGGTTG | 1.03 ± 0.032
CCTTTAAAAT | 1.4 ± 0.41
CCTTTGAGAT | 1.03 ± 0.022
CCTTTGGGGT | 1.69 ± 1.2
CCTTTGTTTT | 1.05 ± 0.091
CCTTTTAGGT | 0.9846 ± 0.0043
CCTTTTCGAG | 1.037 ± 0.0025
CCTTTTCGCG | 1.106 ± 0.0051
CCTTTTGGAT | 1.07 ± 0.073
CCTTTTGGCT | 0.964 ± 0.014
CGAAAAGAGG | 1.1 ± 0.26
CGAAAAGGGA | 1.01 ± 0.029
CGAAAATGCC | 1.02 ± 0.023
CGAAAATTCA | 1.02 ± 0.0077
CGAAAATTCG | 1.03 ± 0.048
CGAAACCGAC | 2.17 ± 1.2
CGAAAGGCTA | 1.15 ± 0.18
CGAAAGGGGA | 1.03 ± 0.018
CGAAATATCT | 1.04 ± 0.058
CGAAATTGTG | 1.02 ± 0.022
CGAACTGAAG | 0.975 ± 0.026
CGAACTTGTT | 1.01 ± 0.04
CGAAGACTGC | 1.19 ± 0.12
CGAAGAGGAG | 0.981 ± 0.011
CGAAGCATTT | 3.73 ± 0.14
CGAAGGGCG | 1.03 ± 0.029

Sequence | switch fluorescence ratio
CGAAGTACCG | 1.08 ± 0.011
CGAAGTGGGG | 1.01 ± 0.026
CGAAGTGGTC | 0.995 ± 0.059
CGAAGTGTTT | 1 ± 0.02
CGAAGTTTGC | 1.23 ± 0.33
CGAATAGCTT | 1.01 ± 0.062
CGAATGCGTT | 0.973 ± 0.021
CGAATGGGGT | 0.985 ± 0.039
CGAATGGTAA | 1.05 ± 0.051
CGAATTAGTT | 0.978 ± 0.045
CGAATTTAAG | 1.009 ± 0.0062
CGAATTTTAT | 0.976 ± 0.039
CGAATTTTTT | 0.9539 ± 0.0064
CGACACCGTT | 1.03 ± 0.056
CGACACTATT | 1.06 ± 0.034
CGACAGGTTC | 1.0621 ± 0.00069
CGACCATAGA | 1.07 ± 0.045
CGACCATAGC | 1.84 ± 0.19
CGACCGGGGA | 1.04 ± 0.011
CGACCGTAAA | 1.5 ± 0.14
CGACCTTGCT | 1.55 ± 0.26
CGACGACTGG | 1.01 ± 0.017
CGACGGGGGG | 1 ± 0.017
CGACGGTTGG | 0.967 ± 0.013
CGACTATTTT | 1.01 ± 0.045
CGACTTGGTA | 0.9766 ± 0.0011

Sequence | switch fluorescence ratio
CGAGAATGTT | 1.07 ± 0.1
CGAGAGGAAA | 0.9804 ± 0.0046
CGAGAGGAGC | 0.998 ± 0.073
CGAGAGGGAG | 1.004 ± 0.0015
CGAGAGGGGT | 1.02 ± 0.044
CGAGAGTGCG | 0.962 ± 0.023
CGAGAGTTTT | 0.985 ± 0.032
CGAGCGATGG | 1.94 ± 0.074
CGAGGAGGGG | 0.995 ± 0.02
CGAGGCAGGT | 1.51 ± 0.093
CGAGGCATTA | 4.8 ± 1.4
CGAGGGACGG | 0.992 ± 0.024
CGAGGGATTC | 1.12 ± 0.048
CGAGGGGAAG | 0.992 ± 0.022
CGAGGGGGAG | 1.004 ± 0.0097
CGAGGGTATG | 1.01 ± 0.027
CGAGGGTGGC | 0.96 ± 0.11
CGAGGGTTAT | 1.005 ± 0.0054
CGAGGTACGT | 0.9867 ± 0.0046
CGAGGTGTGT | 1.009 ± 0.0022
CGAGTCAGTG | 0.979 ± 0.065
CGAGTGTCGG | 0.984 ± 0.02
CGAGTTCCTT | 1.02 ± 0.014
CGAGTTGGAC | 1.0038 ± 0.00091
CGATAAACGG | 1.03 ± 0.022
CGATAAGGGG | 1.02 ± 0.018

Sequence | switch fluorescence ratio
CGATACCTTT | 1.003 ± 0.0086
CGATAGAAAG | 1.01 ± 0.024
CGATAGGCGT | 0.9927 ± 0.0032
CGATAGGTAG | 0.994 ± 0.018
CGATAGGTGG | 0.975 ± 0.094
CGATATAAGA | 0.998 ± 0.054
CGATATACTG | 1.09 ± 0.074
CGATATAGGC | 0.959 ± 0.018
CGATATCGC | 1.03 ± 0.014
CGATATGTTT | 1.01 ± 0.079
CGATATTGGT | 1 ± 0.017
CGATCAAAAC | 1.26 ± 0.31
CGATCATAGG | 1.01 ± 0.049
CGATCATGGT | 0.994 ± 0.011
CGATCCCATT | 1.05 ± 0.037
CGATCTGCTC | 1.06 ± 0.025
CGATGGAGTG | 0.983 ± 0.027
CGATGGGAAA | 1.01 ± 0.014
CGATGGGATC | 1.13 ± 0.0074
CGATGGGCAG | 1.04 ± 0.061
CGATGGGGGT | 1 ± 0.026
CGATGGGTTT | 0.969 ± 0.0062
CGATGGTGTC | 1.01 ± 0.036
